Laboratory results reported in publication PMC6010275.

Target: β-clamp of the Escherichia coli replisome (E. coli) (UniProt P0A988)
UniProt P0A988, sequence (P0A988 whole entry): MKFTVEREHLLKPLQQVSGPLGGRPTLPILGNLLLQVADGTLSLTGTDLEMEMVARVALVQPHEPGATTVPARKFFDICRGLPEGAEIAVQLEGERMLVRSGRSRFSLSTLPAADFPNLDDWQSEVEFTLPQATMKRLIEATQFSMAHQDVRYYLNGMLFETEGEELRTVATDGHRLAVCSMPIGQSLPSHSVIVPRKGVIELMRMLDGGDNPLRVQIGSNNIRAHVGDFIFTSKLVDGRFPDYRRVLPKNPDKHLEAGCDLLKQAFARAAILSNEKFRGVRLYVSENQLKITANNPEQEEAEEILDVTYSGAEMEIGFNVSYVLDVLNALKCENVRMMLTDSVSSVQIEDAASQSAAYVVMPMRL

- rate of cleavage of a 10 nucleotide 5' flap by Pol I, with template-loaded β-clamp against without (denaturing gel): 2.5 fold
Substance: DNA polymerase I (from UniProt P00582 1-928) (enzyme)
